{"source": "the DeepSol protein solubility set", "data": [{"test": "soluble on expression in E. coli; label from the status in PepcDB or PDB records", "values": [{"sequence": "GWQAFKNDATEIIPELGEYPEPPPELENNKTMNRAENGGRPPHHPFETKDVSEYSCRELHFTRYVTDGPCRSAKPVTELVCSGQCGPARLLPNAIGRGKWWRPSGPDFRCIPDRYRAQRVQLLCPGGEAPRARKVRLVASCKCKRLTRFHNQSELKDFGTEAARPQKGRKPRPRARSAKANQAELENAY", "soluble on expression in E. coli": "soluble"}, {"sequence": "MTDFQKQFFARLHIEEKDTVSFEDLSNIMYAMAQTVPFENLNILEKNFKEISKENLKEKILVNNRGGLCYELNPTMYYFLKDSGFDVHLVSGTVYNAANSIWAVDSGHIATVLTHHNELYLIEVGFGSYLPLAPVPFLGEVIHSATGDYRIRKEMTEKGNYILEMRKNNEFLDQSAADDWTLGYAFYIEEVDEEKANTAQKIIVEHEGSPFNKVPLIVKLTEDGHASLTKDSLTVAKNGKKTKETVTDMQYTNLLHSKFGITL", "soluble on expression in E. coli": "not soluble"}, {"sequence": "MNLDAPRVLVLNAAYEVLGLASIKRAVLLVLGGGAEMVSESGLYLNTPSTRIPVPSVVRLKRMVRRRPGRVPLNRRNVLRRDRYTCQYCGQKGGELTVDHVLPKSRGGKSTWDNLVAACRSCNLRKGDRTPEEAGMRLLRPPKPPRVPLFLLDLKEVPPDWRPFVEGLLGLEHHHHHH", "soluble on expression in E. coli": "not soluble"}, {"sequence": "AMGSVTVHSSEPEVRIPENNPVKLSCAYSGFSSPRVEWKFDQGDTTRLVCYNNKITASYEDRVTFLPTGITFKSVTREDTGTYTCMVSEEGGNSYGEVKVKLIVLVPPSKPTVNIPSSATIGNRAVLTCSEQDGSPPSEYTWFKDGIVMPTNPKSTRAFSNSSYVLNPTTGELVFDPLSASDTGEYSCEARNGYGTPMTSNAVRMEAVE", "soluble on expression in E. coli": "soluble"}, {"sequence": "MGSDKIHHHHHHMSETVTESYIGSAIVYIDGRDCGNVSGVKLAIDQETKSLPNYRGGGGNADEVTLIKAVKLSGTFYDFNNDNLALAMRGKIDVLTAAAVVDEDITAVLDGLAPTVHMIDTSVAPVVKNTAGDSTYVLDEDYVVSAAGIRALSGGAITAGQALKLSYTSQAGNALQALTESGKTVSVVVDGINDSTGKPWTLKFYKWKPTPTSGLDLIGTDYGSFDIEGAVLADSSIVATGKSKFFVRSAA", "soluble on expression in E. coli": "not soluble"}, {"sequence": "MLSRPSGTVAKTEFQLRRNVLPALKRFVSAAAKSAGVQEKTTVLENGLRVSSVELNGATSSIVLAFRAGSRYQPANKQGLTHLIRNSVGRDAPNFPGLALVWNTAQNGGNLTAVSNRDVLAIEVNVVRDQSAVVLSLLGQLGNNAFKPWDVEDVKHDTLPADATYLTGTTIAFEQLHQAAFRNGGLGLSNYSVNNVSAKDLSAFAKERLVAGEAVLVGVNVDHDTLVQAGSTQFPLAQNQPAKATPAKYFGGEARKDGRGNRSYVAIAGEGSAITSVKDVAVQAVVAQILLNAAQKVTSEAISVNVNYQDSGLVGVQFAACNTQITQVTKSIASAIKSAKADGLDNAKNTAAVQVLSDAQHASEVALEKATQVLAGVEVSPREFADAIRAVTAQDVTQALSRVNGKLSLAAYGSTSLVPYLDEL", "soluble on expression in E. coli": "not soluble"}, {"sequence": "MQNRLRSALALVTGAGSGIGRAVSVRLAGEGATVAACDLDRAAAQETVRLLGGPGSKEGPPRGNHAAFQADVSEARAARCLLEQVQACFSRPPSVVVSCAGITQDEFLLHMSEDDWDKVIAVNLKGTFLVTQAAAQALVSNGCRGSIINISSIVGKVGNVGQTNYAASKAGVIGLTQTAARELGRHGIRCNSVLPGFIATPMTQKVPQKVVDKITEMIPMGHLGDPEDVADVVAFLASEDSGYITGTSVEVTGGLFMAENLYFQ", "soluble on expression in E. coli": "soluble"}, {"sequence": "MHPASGVMVTVETPETDTVFNRCRPAADGDIVVPHGSTAVLGTTSVDVDDADEFATPDAAVERVIDECSALLPAASDAPIRTTYWGVRPLYSPSDYGDDARAISRGFYVLDHADRDDTAGLTTVVGGKLTTHRLMAEATADLVADRLGVTEPSRTANEPLPGHDDPERLDALVDTFDAASPADADARLEHHHHHH", "soluble on expression in E. coli": "not soluble"}, {"sequence": "MGHHHHHHGSLVPRGSDVQELNSIIQRISKFDNILKDKTIINQQDLRQISWNGIPKIHRPVVWKLLIGYLPVNTKRQEGFLQRKRKEYRDSLKHTFSDQHSRDIPTWHQIEIDIPRTNPHIPLYQFKSVQNSLQRILYLWAIRHPASGYVQGINDLVTPFFETFLTEYLPPSQIDDVKIKDPSTYMVDEQITDLEADTFWCLTKLLEQITDNYIHGQPGILRQVKNLSQLVKRIDADLYNHFQNEHVEFIQFAFRWMNCLLMREFQMGTVIRMWDTYLSETSQEVTSSYSMSSNDIKPPVTPTEPRVASFVTPTKDFQSPTTALSNMTPNNAVEDSGKMRQSSLNEFHVFVCAAFLIKWSDQLMEMDFQETITFLQNPPTKDWTETDIEMLLSEAFIWQSLYKDATSHWL", "soluble on expression in E. coli": "soluble"}]}]}
